IntAct's records for PubMed 18480252

B1: [PIN+] prion protein RNQ1 (Saccharomyces cerevisiae), P25367 (parent)
chain: MDTDKLISEAESHFSQGNHAEAVAKLTSAAQSNPNDEQMSTIESLIQKIAGYVMDNRSGGSDASQDRAAGGGSSFMNTLMADSKGSSQTQLGKLALLATVMTHSSNKGSSNRGFDVGTVMSMLSGSGGGSQSMGASGLAALASQFFKSGNNSQGQGQGQGQGQGQGQGQGQGSFTALASLASSFMNSNNNNQQGQNQSSGGSSFGALASMASSFMHSNNNQNSNNSQQGYNQSYQNGNQNSQGYNNQQYQGGNGGYQQQQGQSGGAFSSLASMAQSYLGGGQTQSNQQQYNQQGQNNQQQYQQQGQNYQHQQQGQQQQQGHSSSFSALASMASSYLGNNSNSNSSYGGQQQANEYGRPQQNGQQQSNEYGRPQYGGNQNSNGQHESFNFSGNFSQQNNNGNQNRY
partner: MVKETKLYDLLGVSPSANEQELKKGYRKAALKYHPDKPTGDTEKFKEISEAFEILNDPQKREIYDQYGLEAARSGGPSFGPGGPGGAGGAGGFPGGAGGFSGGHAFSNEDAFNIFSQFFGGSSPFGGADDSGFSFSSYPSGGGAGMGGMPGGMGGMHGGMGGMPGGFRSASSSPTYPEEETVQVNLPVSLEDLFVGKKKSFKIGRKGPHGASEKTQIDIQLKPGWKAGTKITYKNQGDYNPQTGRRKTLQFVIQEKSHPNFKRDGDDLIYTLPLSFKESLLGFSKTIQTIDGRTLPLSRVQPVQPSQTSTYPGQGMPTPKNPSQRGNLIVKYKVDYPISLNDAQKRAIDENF

Variants of: B1
Conditions: with sis1_yeast SIS1, P25294

Variant | effect of a mutation on the interaction
MDTDKLISEAESHFSQGNHAEAVAKLTSAAQSNPNDEQMSTIESLIQKIAGYVMDNRSGGSDASQDRAAGGGSSFMNTLMADSKGSSQTQLGKAALLATVMTHSSNKGSSNRGFDVGTVMSMLSGSGGGSQSMGASGLAALASQFFKSGNNSQGQGQGQGQGQGQGQGQGQGSFTALASLASSFMNSNNNNQQGQNQSSGGSSFGALASMASSFMHSNNNQNSNNSQQGYNQSYQNGNQNSQGYNNQQYQGGNGGYQQQQGQSGGAFSSLASMAQSYLGGGQTQSNQQQYNQQGQNNQQQYQQQGQNYQHQQQGQQQQQGHSSSFSALASMASSYLGNNSNSNSSYGGQQQANEYGRPQQNGQQQSNEYGRPQYGGNQNSNGQHESFNFSGNFSQQNNNGNQNRY [L94A] | decreasing interaction
